The data set in a line: immunoblot, N-terminal Flag vs C-terminal epitopes, ldlD cells. To be noted: glycan lost; control: WT Ser49-β1AR, ldlD cells with Gal/GalNAc. A general note: In western blotting, separated proteins are transferred to a membrane and probed.

The results in this text go back to PMC5554155.

Regarding β1-adrenergic receptor (β1AR): N15A, the “other: proteolytic processing” value is “no change”.
The result for “β1-adrenergic receptor (β1AR): ldlD cells without Gal/GalNAc” reads “increases”.
